From paper doi:10.1101/2022.12.09.519731 (bioRxiv, 2022)
Several values for one entry are separate records, joined by “and”; a condition that tells them apart may be missing. Equal entries are not always repeated. One block for each molecule: values may come before it.

Experiments:
[1] = biological target: MalE-MglC (Myxococcus xanthus); assay: mass photometry
[2] = biological target: MalE-RomR (Myxococcus xanthus); assay: mass photometry
[3] = biological target: T1, MglA-His6 (Myxococcus xanthus, UniProt Q1DB04 1-195); assay: pull-down
T1 sequence: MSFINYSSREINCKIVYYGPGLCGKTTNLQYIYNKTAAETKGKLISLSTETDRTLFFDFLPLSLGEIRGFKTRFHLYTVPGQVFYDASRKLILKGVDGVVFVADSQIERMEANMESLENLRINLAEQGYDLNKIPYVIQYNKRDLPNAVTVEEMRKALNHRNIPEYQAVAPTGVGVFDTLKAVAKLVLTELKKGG

stoichiometry N [1]: 2
Molecule: MalE-MglC (natural protein)

stoichiometry N (RomR:MglC (2:2)) [1]: 1
stoichiometry N (RomR:MglC (3:2)) [1]: 1.5
stoichiometry N [2]: 3 and 2
Molecule: MalE-RomR (natural protein)

binding result [3]: binds
B1: His6-MglB (natural protein, Myxococcus xanthus)
chain: MGTQLVMYEEEFTKINAVCDRLTKDANAKVVFLVDKNGQLISSAGQTQNIDTTSLASLTAGNVAAMGGLAKLIGENEFPNQFHEGAKDSLYMTIVGSRVVLVVIFDNRTSLGLVRLRIKKASDELTKIFESLVKKTDSPGAGSPFAEISDDDIDNLFSE
